{"source": "paper doi:10.1101/2020.11.17.387910", "about": "(bioRxiv, 2020)", "molecular_target": "the molecule itself", "experiment": "SAXS", "data": [{"protein": "human P5 (PDIA6), full-length (enzyme, UniProt Q15084 20-440, looked up) LYSSSDDVIELTPSNFNREVIQSDSLWLVEFYAPWCGHCQRLTPEWKKAATALKDVVKVGAVDADKHHSLGGQYGVQGFPTIKIFGSNKNRPEDYQGGRTGEAIVDAALSALRQLVKDRLGGRSGGYSSGKQGRSDSSSKKDVIELTDDSFDKNVLDSEDVWMVEFYAPWCGHCKNLEPEWAAAASEVKEQTKGKVKLAAVDATVNQVLASRYGIRGFPTIKIFQKGESPVDYDGGRTRSDIVSRALDLFSDNAPPPELLEIINEDIAKRTCEEHQLCVVAVLPHILDTGAAGRNSYLEVLLKLADKYKKKMWGWLWTEAGAQSELETALGIGGFGYPAMAAINARKMKFALLKGSFSEQGINEFLRELSFGRGSTAPVGGGAFPTIVEREPWDGRDGELPVEDDIDLSDVELDDLGKDEL", "values": [{"measurement": "stoichiometry N", "value": 2}]}]}
